Experimental data as given in PMC3504746.

Target: skeletal muscle ryanodine receptor (RyR1) purified from sheep skeletal muscle, homotetramer (sheep (endogenous in skeletal muscle))
Test: negative-stain TEM

stoichiometry N: 4
Substance: skeletal muscle ryanodine receptor (RyR1) purified from sheep skeletal muscle, homotetramer
